Results taken from patent US20260234260A1 (EUCURE BEIJING BIOPHARMA, published 2026).
Like-named read-outs stand apart in the source and are kept apart here.

Experiments:
[1] = molecular target: T1, human CD40/TNFRSF5 Protein, His Tag (ACRO Biosystems Cat #CD0-H5228) (human, UniProt P25942 21-193); assay: SPR (Biacore), hCD40
T1 construct: Bought protein; also called hCD40; human CD40 protein; not shown: His tag
Procedure: The binding affinity to human […] (hCD40) was determined by Biacore systems.

[2] = molecular target: T2, human CD40 expressed on Jurkat-Luc-hCD40 reporter cells (human, UniProt P25942 21-277); assay: cell-based or functional assay
T2 sequence (P25942 21-277 limits assumed): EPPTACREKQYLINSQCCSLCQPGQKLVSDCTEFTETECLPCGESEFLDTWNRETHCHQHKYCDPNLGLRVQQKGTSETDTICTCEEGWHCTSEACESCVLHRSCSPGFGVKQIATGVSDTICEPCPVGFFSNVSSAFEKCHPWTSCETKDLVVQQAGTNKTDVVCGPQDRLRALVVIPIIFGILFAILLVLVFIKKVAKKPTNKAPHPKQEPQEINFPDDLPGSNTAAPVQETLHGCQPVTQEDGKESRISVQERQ

[3] = molecular target: T2, human CD40 expressed on …; assay: cell-based or functional assay; remark: listed apart in the source
[4] = molecular target: T2, human CD40 expressed on …; assay: cell-based or functional assay; remark: listed apart in the source
[5] = molecular target: T2, human CD40 expressed on …; assay: cell-based or functional assay; remark: listed apart in the source
[6] = molecular target: T2, human CD40 expressed on …; assay: cell-based or functional assay; remark: listed apart in the source
[7] = molecular target: T1, human CD40/TNFRSF5 Protein, His Tag …; assay: SPR (Biacore), antibody captured, His-tagged hCD40 in solution

T1 sequence (P25942 21-193 limits assumed): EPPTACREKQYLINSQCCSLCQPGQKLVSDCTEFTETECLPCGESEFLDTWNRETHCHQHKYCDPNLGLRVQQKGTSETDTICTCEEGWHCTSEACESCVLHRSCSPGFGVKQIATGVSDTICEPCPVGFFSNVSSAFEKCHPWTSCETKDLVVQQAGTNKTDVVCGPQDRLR

- Kd [1]: 3.06 nM
- koff [1]: 0.000322 s⁻¹
- kon [1]: 105000 M⁻¹ s⁻¹
- EC50 Value (ug/ml), luminescence of Jurkat-Luc-hCD40 reporter cells in the presence of CHO-K1-hFcγRIIB basal cells [2]: 0.0203 µg/mL
- EC50 Value (ug/ml), luminescence of Jurkat-Luc-hCD40 reporter cells in the presence of Jurkat-hPD1 basal cells [3]: 0.0089 µg/mL
- EC50 (read off the curve), luciferase Rlu, Jurkat-Luc-hCD40 reporter cells, no basal cells [4]: ~0.3 µg/mL
- EC50 (read off the curve), luciferase Rlu, Jurkat-Luc-hCD40 reporter cells with CHO-K1-hFcγRIIB basal cells [5]: ~0.01 µg/mL
- EC50 (read off the curve), luciferase Rlu, Jurkat-Luc-hCD40 reporter cells with CHO-K1-hFcγRIIB basal cells [6]: ~0.02 µg/mL
- Kd [7]: 3.06 nM
- koff [7]: 0.000322 s⁻¹
- kon [7]: 105000 M⁻¹ s⁻¹
B1: anti-CD40 monoclonal antibody 6A7-H4K2-IgG2 (antibody, V domains shown)
VH: QVQLVQSGAEVKKPGASVKLSCKASGYTFISYYIYWVKQAPGQGLEWIGGINPRNGGTNFNEKFKSRATLTVDTSISTAYMELSRLRSEDTAVYYCTRHGNGVYWGQGTTLTVSS
VL: DVVMTQSPLSLPVTLGQPASISCRSSQSLLHSNGNTYLHWYQQRPGQSPNHLIYQVSNRFSGVPDRFSGSGSGTDFTLKISRVEAEDVGVYFCSQTTHVPWTFGGGTKVEIK
notes: IgG2; also called CD40 (6A7-H4K2-IgG2); C40 (6A7-H4K2-IgG2)
